Source: the DeepSol protein solubility set

Experiment: soluble on expression in E. coli; label from the status in PepcDB or PDB records

Row | Sequence | soluble on expression in E. coli
1 | MAHHHHHHMVVPVMNMTREPAVDSPENSRKISLAGYPEVAGLFCVTVFKSTLDLEVRDCCGLLTLDGVGKCVELKKFSISNCGMLTNISDLKDCVNLEMLTLSGCKTLRNLTPLKGHRTLSCITISHCERMMELDLEGATNLMQLNISDCEELKDVHVSRCTRLEVIDIHDCVKLEKLHGLTYLRELKTLILAGNRELSAVEGINELINRVEKLSLKNCEKLEDLKFLDFCNFLKEVVVAGSNVTEEKKQELRGKGVRIVNEVKVADG | not soluble
2 | MPILFDCNAIASQVLKDEASALLESVGQFQKPNDLEAIVKLILKSQENGGKLVIVGVGKSALVAQKIVASMLSTGNRSAFLHPTEAMHGDLGMVEKNDVVLMISYGGESLELLNLVSHLKRLSHKIITFTKSPNSSLSKLGDYYLSLKIQKEACPINTAPTTSTTLTLALGDVLMACLMRAKNFSQEDFASFHPGGLLGKKLFVKVKDLLQTTNLPLIAPSTSFKDALIEMSEKRLGSAILVNEANELVGVLSDGDVRRALLKGVSLKSEVRHFATLKPKSFKNLDALLLEALEFLERHKIQLLVCVDDHNKVLGVLHLHQLLELGLKA | not soluble
3 | MANRKYFGTDGVRGKVGAYPITPDFALKLGWAAGKVLASQGSKMVLIGKDTRISGYMLESALEAGLAAAGLSAAFTGPMPTPAIAYLTRTFRAEAGIVISASHNPYYDNGIKFFSAKGTKLPDEIEEAIEAMLEQPMDCVESAELGKASRINDAAGRYIEFCKGTFPAHLGLEGYKIVVDCANGATYHIAPNVLRELGAEVIEIGTDPNGLNINEKCGATDVTALQAKVVETKADVGLAYDGDGDRIMMVDHLGNKVDGDQILFIIAREALRSGQLKGGVVGTLMSNMSLEIALKMLGVPFLRANVGDRYVLEKMVENDWTLGGENSGHIIIADKNTTGDGIVASLAVLAAMAQHKLSLNELASAVKLFPQVLINVRFAGGENPLESDAVKSVAAEVEKRLEGKGRILLRKSGTEPLIRVMVECQDAELAQQCAEEIAEAVKKIN | not soluble
4 | MGSDKIHHHHHHMAPLAPLALSELGPKLDRSIDPLWISRQSLEAEPNAFKPGCGWLPNDWMPLESIRKALRSATRREDDSLLGYSSPLGLSALRDLLARRAQSKGIEANLNQVLLTDSGTQAIDLVCRFLLKPDDVVLIDDPCYFNFHALLKVHQVKVVGIPYTPNGPDLEAFKEAIESYNPRLYITNSGIHNPTGATLSLSTAHQLLKLIDQSNLIVIEDDIFSDFEYTPAPRLAALDNLSRVIFIGSFSKTLSASIRCGYIIAKPEWIDQIADLKIATSFSHNGLSAKILHTALTDGSYRKHLDLLKVRLAQAMQETIAKLKSIGIEPWIEPKAGIFVWCRLPEGVDAAKIARFCLNRQVILAPGNAFSQAQSAGQFIRFNITQSNHDYIYKTLAEALLQESLEKQV | not soluble
5 | MTNISIPGNWQTCDVEAMDGDFDDNMLQFLGSFEEVLPEGVEVETKKGMKKKNKPKKVENTERPEEDAKCVEERRLAKKLRRKEQMAANRKQKKERLAKRKQKEAESSAKKSENATETTTEKPKEQKKRKGGENGDTGKPKKSKKEASKKTDISAWKQFYFLPNEVLEAIEQMGFSEPTEIQSAVLPAAVRDRQDVLGAAETGSGKTLAFGIPLVARLLESSDDSQETESTEVRGPRALIVAPTRELVIQIMKHINALISTTQLIATSIVGGLAQVKQERIISQQRPDIVVATPGRLWAMMQEAETGEFLAEWKDLKCLVVDETDRMVEEGYFAELTHILNKIHEESEKEKLQTLVFSATLTFAKAQDVAEEEKKKAKELSSQQKIQRLIKLTGLRENKHKVIDLTRQMGTAGCLVEARINCGNLLEKDTSLVYLLTRYPGRTIVFVNSIDAARRLYSVLKSVNIDPMILHAKMIQKQRLKNLEKFSESKNAVLLATDVAARGLDIQGIDHVIHYQVPKKVEIYIHRSGRTARASHRGLTVVLVDPPSRQFYMKLCKGLNRMQDLNVFPIDFEPLMNAIKKRVRLASEIDSLGFRCKKIKMSESWFEKAARAADLDYDETRHREMDGLNLEVDTMVQKSRQLQAQLRTELSLPLPRVDGSDSMKTKYITPEIVARLRSVGDNAIDVLNQKIDETKEWKRKSRKATREDEMNSMKKSLKSSQKNKERLAEKKKKEKAAKVTKLSETD | not soluble
6 | MGHSQSYDLRNPEGGEKTPVRGVRRVSREHQTDAQFSTETAEPFDFREDELRDRIRREQLRKREVELETLRIRQHESREPIIDAYRQNQPAPQGNLYNEFNHYDSMKHASPSDPATYFALKPMTEVNEGRQFSIPTSSTRRYDQVPIDPSPELQRREVPSKQSPPNYPKRSSVFGGRVSPLPRQSEVDPHPMPRYIPPMSPSNPIDDVPPTHVSELHAEKRMIVGIDDELQPEKNNVTYVTVATAAIDNELLHRHPEVGRHPVYVLPAQTSYGASAKRRSSDDEAKNVLPPQNCTVEHCTHVAVNDGSPVVIRKRASQDSIRDKENRLTIPINEDDTENVGEGTNYQNVSKKCFEERLHYDSYMPTLSLRQRPVVSFYDKLH | not soluble
7 | MTLMVPFKQVDVFTEKPFMGNPVAVINFLEIDENEVSQEELQAIANWTNLSETTFLFKPSDKKYDYKLRIFTPRSELPFAGHPTIGSCKAFLEFTKNTTATSLVQECKIGAVPITINEGLISFKAPMADYESISSEMIADYEKAIGLKFIKPPALLHTGPEWIVALVEDAETCFNANPNFAMLAHQTKQNDHVGIILAGPKKEAAIKNSYEMRAFAPVINVYEDPVCGSGSVALARYLQEVYKFEKTTDITISEGGRLKRNGLMLASIKKEADNSTSYYIAGHATTVIDGKIKVHHHHHH | soluble
8 | MGHHHHHHSHDFEFIRRVEASEESLDVVFAGRLIKEKGADLLIKAMKLLPDYSCLIVGEGPEKASLIKSAPENVKFAGFMNYGYLIATLKSAKVFVLPSRREGFGIAALEANACGLPVVTINHPMNAVVEIARETGFIASPSPQDIAEKIKIAMESRKKMRRRCVDYARKF | not soluble
9 | MTMVQPSGGGASGRGSSSGLADVIDTILDKGLVIDAFVRVSVVGIEILTIDARIVVASVDTYLRFAEATNRLDLTQTGGKGLPEVLQDTTQGVSKSKTKGIAQGALETAGEKLRDIIGEPEEEEEPAPRRRRRREEE | not soluble
10 | SLAPTTEIEPIEAQSLKKLSLKSLKRSLELFSPVHGQFPPPDPEAKQIRLSHKMKVAFGGVEPVVSQPPRQPDRINEQPGPSNALSLAAPEGSKSTQKGATESAIVVGPTLLRPILPKGLNYTGSSGKSTTIIPANVSSYQRNLSTAALMERIPSRWPRPEWHAPWKNYRVIQGHLGWVRSVAFDPSNEWFCTGSADRTIKIWDVATGVLKLTLTGHIEQVRGLAVSNRHTYMFSAGDDKQVKCWDLEQNKVIRSYHGHLSGVYCLALHPTLDVLLTGGRDSVCRVWDIRTKMQIFALSGHDNTVCSVFTRPTDPQVVTGSHDTTIKFWDLRYGKTMSTLTHHKKSVRAMTLHPKENAFASASADNTKKFSLPKGEFCHNMLSQQKTIINAMAVNEDGVMVTGGDNGSIWFWDWKSGHSFQQSETIVQPGSLESEAGIYAACYDNTGSRLVTCEADKTIKMWKEDENATPETHPINFKPPKEIRRF | soluble
11 | MSLNNRSETMKYKRIVFKVGTSSLTNEDGSLSRSKVKDITQQLAMLHEAGHELILVSSGAIAAGFGALGFKKRPTKIADKQASAAVGQGLLLEEYTTNLLLRQIVSAQILLTQDDFVDKRRYKNAHQALSVLLNRGAIPIINENDSVVIDELKVGDNDTLSAQVAAMVQADLLVFLTDVDGLYTGNPNSDPRAKRLERIETINREIIDMAGGAGSSNGTGGMLTKIKAATIATESGVPVYICSSLKSDSMIEAAEETEDGSYFVAQEKGLRTQKQWLAFYAQSQGSIWVDKGAAEALSQHGKSLLLSGIVEAEGVFSYGDIVTVFDKESGKSLGKGRVQFGASALEDILRSQKAKGVLIYRDDWISITPEIQLLFTEFEGHHHHHH | soluble
12 | MAHHHHHHMFTKFLSRVKAMPPRSGDWANKLGPVALMGCSVGAHMSSTKLLNHFYTSSRDCDMYAELTFHEPGPVECPPETVIFFPVIQCGEMLDEKGEPSEATKDDWYLAMTESTTELLEKGYVPVSVGGDGSATLAMVEAYKRLFRSSEVVLIHCSARPSLEKAEQPIRVLLEKDLLKGVVEIGNRCVSSGDRKIRKQHKVMYMDMQAIYAKGLFCIRDIRNDYPVFLSIDADVLDPAFAPGVESPVPGGFSTRDLLHIMTGIRGPKVAGIDIHGYHPSLDMCRSDGVGLTQMALTKVLKESIVKAYTISTQTAEEGLERVRLMQRQGTLSDNPYPDH | not soluble
13 | MGSDKIHHHHHHMLLALSTWSEIEERLKSSTSVVVPIGSNEQHGPTGLLGTDWLCPEIIAHEASKRASDKVLVAPTFNIGMAQHHLAFPGTIFLRPSTFIAAIGDWVRSLGAHGFTRIYFLNGHGGNVASIEAAFSEIYADYSFRQQRAPFALKLKNWWDLAGVNALANRQFPTGHGSHATPSEIAVTQWAYPETIKTAAYSPPIAPTGPIREALDFRARYADGRMGSDPAQATPEKGGELVSMAANALIEDLAAFAAERAPA | not soluble
14 | AHHHHHHGSKGILPYVIFRSKKGTFALDAYLALRVEKVERIATLIRKAEVVKRAFDIPPNADLTLEELSEFLESSMEKIRKNAGESFDRRLKKIRRWNLARLFGIPTGHTRHIAEDEHLSREHRESLLALSILENVCRGGIEPIGYGVVDVEVKEGKVYINGKLDPVYTELIKIDMKAALALLEILSE | not soluble
15 | MRGSHHHHHHGSDLGKKLLEAARAGQDDEVRILMANGADVNANDWFGITPLHLVVNNGHLEIIEVLLKYAADVNASDKSGWTPLHLAAYRGHLEIVEVLLKYGADVNAMDYQGYTPLHLAAEDGHLEIVEVLLKYGADVNAQDKFGKTAFDISIDNGNEDLAEILQKLN | soluble
16 | MEIKRILVSRTDKIGDLVLSIPSFFMLKKMYPNAELVVIVRKYNVDIVKNLPYIDRIVIIDEYSKAELLEKIAYFKADVFIALYNDSYIASLARASKAKIKIGPISKLSSFFTYNKGVLQKRSLSLKNEGQYNLDLVTKLDRKRFAILYELNTKLEHHHHHH | soluble
17 | MNLYIASIKLWFKGFKENTERSITYSFEPNKINVITGDSSTGKSSILDIIDYLLLSDNPTIVENIINENVEFYGMNIFLEERSYILMRKAPHSGQGTQDVYWKEQEEYPMPYIQTHSVGEMRTILTRMFYVPQHETKVGNRKYNMTFRHFLPFNYLTEDIISSANTYFDTAFFINRSYDVFLDYALELVNGIQYHNANEIKAKIEKAEIDLKQYQKKHQIAQENATKYKASLTSIYDDALSLNLIPADNFFVRENAHEMLHYIKEALAAYNKLIKNDEDTKKLELLKKERYELNNKLSIYNSLLAEMQKQKSSGKKIQDSLRPITFIKEHIDEVIISPETIELLHLLEKQLVQIKESRKEKPKLPHDFALRHEELKDKLKACESKLKELTILRKTIANPKWLERAIGLKYRLENLKRPKEDTYQASTEQNMISLIESLKIEQKNMSLLPHDVKEKLNSYINKYFHSINGIVDSYPDSTMRYDDDERRISLLNNGEDYPVRNIGSKSNYMFLHLCFFLGLHESIMFHRSKHVGSFLFIDQPSMPYYADKGTLDNDDKKQLIKAFRLLNEFMEEIIGNQNRSFQMILIEHADESYWKELEYFHTTATFSKIAQGGLIPKYIYE | not soluble
18 | MGSDKIHHHHHHDYEAVNTNPYGVSDGELGPLKYGARFMNMQQRVIPIGSPSLTTGPGNDLQNTDLISSGNYIGYFGNNNNWGFNNEANWNFTDSRMNYAYQNFYSQIFLPWNEIYEIAKDSDSPSEQAILEIANIVRNIAWLRATDVFGPIAYNSAGDGSIAPKFDSQEVVYRSMLADLSKSVELLNTISYSVMAQYDLIYNGNVQNWVKLANSLMLRIAVRVHFIDETLAKEYITKALDPKNGGVIEDISSEAKIKSSDKMPLLNSMLASVNEYNETRMGATIWGYLDGYKDPRLSAYFTEGTYGSGSWAQTGYFPVAPTNSKSKSETSYSAKFASRPKVDSNSPLYWFRASETYFLKAEAALYNLIGGDPKTFYEQGINISFQEQGVSGVATYLSGTGKPTGLTGSNYKYGTYNHDLSIGNTSPKWDDYTGNLSKQEEQLQKIITQKYLALYPNAVEAWTEYRRTGFPYLMKPMDEAAPGRIGASIEDCRVPERFRFAPTAYNSNPNMAEIPTLLGGGDIGATKLWWVRSNRPKQPNQ | not soluble
